Test results taken from publication PMC13064845 (2025).

Molecular target: thrombospondin-1 (TSP1), immobilised in the Biacore analysis (UniProt P35441 19-1170)
Experiment: SPR

Chain of thrombospondin-1 (TSP1), immobilised in the Biacore analysis (P35441 19-1170): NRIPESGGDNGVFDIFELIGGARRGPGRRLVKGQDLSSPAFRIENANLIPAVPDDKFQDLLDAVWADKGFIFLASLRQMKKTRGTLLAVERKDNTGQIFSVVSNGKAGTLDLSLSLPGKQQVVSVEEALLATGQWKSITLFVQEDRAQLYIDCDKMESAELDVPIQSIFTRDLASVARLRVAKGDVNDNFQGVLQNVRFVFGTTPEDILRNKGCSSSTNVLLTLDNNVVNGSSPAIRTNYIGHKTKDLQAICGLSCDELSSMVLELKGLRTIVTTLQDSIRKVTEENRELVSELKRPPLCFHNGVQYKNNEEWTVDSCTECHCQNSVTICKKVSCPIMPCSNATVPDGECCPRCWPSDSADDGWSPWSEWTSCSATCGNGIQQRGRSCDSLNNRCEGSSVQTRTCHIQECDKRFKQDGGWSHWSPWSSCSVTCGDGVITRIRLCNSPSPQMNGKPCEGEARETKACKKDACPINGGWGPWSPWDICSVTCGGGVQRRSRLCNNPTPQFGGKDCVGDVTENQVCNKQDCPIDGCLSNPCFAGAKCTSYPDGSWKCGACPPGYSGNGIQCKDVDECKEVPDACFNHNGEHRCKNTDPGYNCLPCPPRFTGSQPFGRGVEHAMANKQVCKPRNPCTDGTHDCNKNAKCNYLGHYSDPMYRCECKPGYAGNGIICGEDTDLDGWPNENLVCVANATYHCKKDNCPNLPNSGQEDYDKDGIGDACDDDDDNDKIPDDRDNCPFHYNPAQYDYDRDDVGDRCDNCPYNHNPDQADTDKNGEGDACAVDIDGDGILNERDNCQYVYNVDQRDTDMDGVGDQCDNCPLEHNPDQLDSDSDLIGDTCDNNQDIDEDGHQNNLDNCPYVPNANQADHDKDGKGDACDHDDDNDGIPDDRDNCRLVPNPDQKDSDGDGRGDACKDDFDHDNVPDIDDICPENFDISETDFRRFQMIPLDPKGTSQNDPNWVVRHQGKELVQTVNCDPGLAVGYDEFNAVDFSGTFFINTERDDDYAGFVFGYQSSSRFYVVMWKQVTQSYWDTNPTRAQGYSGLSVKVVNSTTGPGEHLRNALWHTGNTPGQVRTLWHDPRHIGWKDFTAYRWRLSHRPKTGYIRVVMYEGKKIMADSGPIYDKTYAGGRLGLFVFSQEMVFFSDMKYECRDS

Kd: 29.9 nM
B1: fibulin-7 (FBLN7), analyte of the Biacore analysis (natural protein)
chain: QSCLNKQQLLTTIRQLQQLLKGQETRFTEGIRNMKSRLAALQNTVNKMTPDAPPVSCPALEAPPDGKKFGSKYLVDHEVYFTCNPGFQLVGPSSVVCLANGSWTGEQPRCRDISECSSQPCHNGGTCVEGINHYRCICPPGKTGNRCQHQTQAAAPDGGEAGDPAFSRAPRCAQVEREQHCSCEAGFHLSSTTGGHSVCQDVNECEIYGQKGRPRLCMHACVNTPGSYRCTCPSGYRILADGKSCEDVDECAGPQHMCPRGTTCINTGGGFQCVNPECPEGSGNISYVKTSPFQCERNPCPMDSRPCRHLPKTISFHYLSLPSKLKTPITLFRMATASIPGHPGPNSLRFGIVGGNSRGHFVMQRSDRQTGELILTQTLEGPQTLEVDVDMSEYLERSFQANHVSKVTIFVSRYDF
